Values of other authors, collected in article PMC9902533.

Target: Immunoglobulin E kappa (recombinant, clone AbD18705_hIgE, HCA190) (human) (UniProt P01854+P01834)
Settings: 10 mM HEPES pH 7.4, 0.05% Tween-20, room temperature (IgE; fibrils and exosomes same buffer); FUS: 50 mM Tris-HCl pH 7.4, 25 mM KCl, 0.02% Tween-20, on-chip …

Chain of Immunoglobulin E kappa (recombinant, clone AbD18705_hIgE, HCA190) (human) (P01854 whole entry, chain 1 of 2, other chains not shown): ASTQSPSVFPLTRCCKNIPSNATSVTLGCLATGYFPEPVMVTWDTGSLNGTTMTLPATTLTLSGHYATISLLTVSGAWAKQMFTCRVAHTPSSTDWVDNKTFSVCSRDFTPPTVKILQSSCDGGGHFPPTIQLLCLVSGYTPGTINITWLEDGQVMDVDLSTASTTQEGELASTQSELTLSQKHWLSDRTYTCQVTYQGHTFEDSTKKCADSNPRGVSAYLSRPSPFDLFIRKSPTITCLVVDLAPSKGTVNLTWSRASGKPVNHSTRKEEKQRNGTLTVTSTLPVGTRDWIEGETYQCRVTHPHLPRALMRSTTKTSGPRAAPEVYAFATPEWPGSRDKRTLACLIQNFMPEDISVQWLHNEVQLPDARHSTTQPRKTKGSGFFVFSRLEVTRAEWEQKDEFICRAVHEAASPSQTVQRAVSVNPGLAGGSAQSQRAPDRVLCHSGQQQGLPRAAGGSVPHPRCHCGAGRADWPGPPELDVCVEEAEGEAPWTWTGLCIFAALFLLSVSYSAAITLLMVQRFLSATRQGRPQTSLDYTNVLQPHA

## TGGGGCACGTTTATCCGTCCCTCCTAGTGGCGTGCCCC [IgE aptamer]
  Kd: 50 nM
